Substitutions are numbered along the chain they refer to.
B1: PAH3 target (dsDNA)
DNA 1: TGCTTCATAGGGTAGTTCTAAAGATTAAATCACTTAATGCATGTGATCTAAA
DNA 2: TTTAGATCACATGCATTAAGTGATTTAATCTTTAGAACTACCCTATGAAGCA
B2: PAH2 target (dsDNA)
DNA 1: TTCAGTTTGTTATATATGTGTCTATTAAGTTAGATTGTGAGCTCCTAAAAGA
DNA 2: TCTTTTAGGAGCTCACAATCTAACTTAATAGACACATATATAACAAACTGAA

Tests used:
Details in all cases: tags: 3xFlag, SV40 NLS
PAH3 Left TAL-PBx = target: T1, PAH3 Left TAL-PBx (synthetic construct); assay: cell_activity; left only
T1 chain: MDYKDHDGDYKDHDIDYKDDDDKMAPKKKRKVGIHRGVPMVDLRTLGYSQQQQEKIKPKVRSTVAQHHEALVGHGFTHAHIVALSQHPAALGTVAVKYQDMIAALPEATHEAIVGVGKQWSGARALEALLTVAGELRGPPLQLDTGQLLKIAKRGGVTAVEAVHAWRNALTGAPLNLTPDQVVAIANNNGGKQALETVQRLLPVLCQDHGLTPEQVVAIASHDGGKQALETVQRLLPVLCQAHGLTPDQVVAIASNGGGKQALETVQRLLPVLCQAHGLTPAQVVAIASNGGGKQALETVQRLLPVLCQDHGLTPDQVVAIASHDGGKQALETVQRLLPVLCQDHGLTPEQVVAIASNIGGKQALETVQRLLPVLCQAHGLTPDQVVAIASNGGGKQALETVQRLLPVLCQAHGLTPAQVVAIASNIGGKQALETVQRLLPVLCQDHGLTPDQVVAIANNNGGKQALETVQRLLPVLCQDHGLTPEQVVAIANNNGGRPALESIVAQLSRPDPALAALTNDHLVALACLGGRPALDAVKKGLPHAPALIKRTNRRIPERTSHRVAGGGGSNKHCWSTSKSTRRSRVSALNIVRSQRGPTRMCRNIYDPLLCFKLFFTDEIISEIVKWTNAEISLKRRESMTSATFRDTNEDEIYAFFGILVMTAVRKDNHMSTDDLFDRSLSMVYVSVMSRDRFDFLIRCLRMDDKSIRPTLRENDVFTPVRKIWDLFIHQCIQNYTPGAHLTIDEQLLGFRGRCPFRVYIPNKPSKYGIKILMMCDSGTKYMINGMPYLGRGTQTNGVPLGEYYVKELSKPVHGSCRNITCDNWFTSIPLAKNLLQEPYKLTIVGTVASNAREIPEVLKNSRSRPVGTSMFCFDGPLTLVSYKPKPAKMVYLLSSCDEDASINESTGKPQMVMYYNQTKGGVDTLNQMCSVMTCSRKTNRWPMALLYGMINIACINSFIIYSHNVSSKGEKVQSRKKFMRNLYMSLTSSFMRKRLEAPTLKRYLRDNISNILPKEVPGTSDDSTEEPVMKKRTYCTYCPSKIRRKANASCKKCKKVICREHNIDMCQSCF

PAH3 Right TAL-PBx = target: T2, PAH3 Right TAL-PBx (synthetic construct); assay: cell_activity; right only
T2 chain: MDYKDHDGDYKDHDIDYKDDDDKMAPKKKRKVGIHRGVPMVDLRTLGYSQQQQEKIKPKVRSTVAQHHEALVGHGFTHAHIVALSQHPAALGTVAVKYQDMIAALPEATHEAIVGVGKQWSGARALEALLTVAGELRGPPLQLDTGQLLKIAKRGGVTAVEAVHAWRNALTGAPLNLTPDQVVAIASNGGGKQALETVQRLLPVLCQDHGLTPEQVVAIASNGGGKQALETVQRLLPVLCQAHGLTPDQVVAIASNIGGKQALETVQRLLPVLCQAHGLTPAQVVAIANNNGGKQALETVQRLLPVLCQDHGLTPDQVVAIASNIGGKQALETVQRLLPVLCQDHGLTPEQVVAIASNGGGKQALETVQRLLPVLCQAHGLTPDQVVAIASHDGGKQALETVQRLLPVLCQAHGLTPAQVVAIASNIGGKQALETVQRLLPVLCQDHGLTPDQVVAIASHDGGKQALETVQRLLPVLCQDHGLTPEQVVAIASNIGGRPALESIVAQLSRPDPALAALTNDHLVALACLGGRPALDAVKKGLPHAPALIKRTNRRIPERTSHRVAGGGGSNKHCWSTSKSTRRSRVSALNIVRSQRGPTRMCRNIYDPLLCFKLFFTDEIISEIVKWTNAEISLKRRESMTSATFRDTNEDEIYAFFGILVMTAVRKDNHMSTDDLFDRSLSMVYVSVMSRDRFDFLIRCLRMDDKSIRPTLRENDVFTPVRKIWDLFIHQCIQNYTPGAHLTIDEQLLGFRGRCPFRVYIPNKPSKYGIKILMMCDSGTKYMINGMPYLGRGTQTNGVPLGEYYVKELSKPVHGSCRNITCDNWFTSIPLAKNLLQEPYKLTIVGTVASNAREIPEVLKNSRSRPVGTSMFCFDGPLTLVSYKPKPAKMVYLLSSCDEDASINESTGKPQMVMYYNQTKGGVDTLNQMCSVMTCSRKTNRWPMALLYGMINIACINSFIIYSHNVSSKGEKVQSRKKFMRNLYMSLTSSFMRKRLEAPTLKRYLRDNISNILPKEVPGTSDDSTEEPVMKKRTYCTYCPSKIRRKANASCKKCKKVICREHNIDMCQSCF

PAH2 Left TAL-PBx = target: T3, PAH2 Left TAL-PBx (synthetic construct); assay: cell_activity; left only
T3 chain: T2 chain with N222H, G223D, I325G, H392N, D393G, S425N, I427N, H460N, D461G, I495G

PAH2 Right TAL-PBx = target: T4, PAH2 Right TAL-PBx (synthetic construct); assay: cell_activity; right only
T4 chain: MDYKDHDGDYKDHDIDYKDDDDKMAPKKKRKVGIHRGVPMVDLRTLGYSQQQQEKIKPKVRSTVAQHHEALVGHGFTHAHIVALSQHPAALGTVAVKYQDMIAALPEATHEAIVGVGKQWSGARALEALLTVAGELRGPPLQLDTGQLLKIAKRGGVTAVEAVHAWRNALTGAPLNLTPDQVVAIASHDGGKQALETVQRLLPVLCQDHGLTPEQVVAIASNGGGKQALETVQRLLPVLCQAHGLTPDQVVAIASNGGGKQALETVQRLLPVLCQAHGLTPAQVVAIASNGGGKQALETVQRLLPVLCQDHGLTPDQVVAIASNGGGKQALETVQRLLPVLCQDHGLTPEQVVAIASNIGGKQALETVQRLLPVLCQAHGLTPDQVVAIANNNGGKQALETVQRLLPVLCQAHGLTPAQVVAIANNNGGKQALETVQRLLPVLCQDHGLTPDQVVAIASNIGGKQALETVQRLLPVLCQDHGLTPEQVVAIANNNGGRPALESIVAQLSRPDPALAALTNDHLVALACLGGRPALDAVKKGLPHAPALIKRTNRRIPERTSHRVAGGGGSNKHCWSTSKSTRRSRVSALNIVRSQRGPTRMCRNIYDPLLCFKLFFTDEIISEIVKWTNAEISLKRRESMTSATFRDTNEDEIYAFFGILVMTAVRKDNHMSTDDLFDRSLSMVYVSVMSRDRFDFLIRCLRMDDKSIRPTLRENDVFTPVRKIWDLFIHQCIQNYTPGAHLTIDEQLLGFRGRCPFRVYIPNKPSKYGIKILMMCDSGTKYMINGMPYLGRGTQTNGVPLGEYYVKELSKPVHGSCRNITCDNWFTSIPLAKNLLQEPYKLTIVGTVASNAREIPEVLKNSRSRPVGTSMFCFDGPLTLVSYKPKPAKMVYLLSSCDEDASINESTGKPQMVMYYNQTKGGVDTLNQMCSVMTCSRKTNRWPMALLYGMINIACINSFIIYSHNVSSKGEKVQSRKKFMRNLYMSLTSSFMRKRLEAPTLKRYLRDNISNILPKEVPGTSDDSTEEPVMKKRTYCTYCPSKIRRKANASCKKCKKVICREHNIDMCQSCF

Binder	activity (PAH3 Left TAL-PBx) [% GFP+]	activity (PAH3 Right TAL-PBx) [% GFP+]	activity (PAH2 Left TAL-PBx) [% GFP+]	activity (PAH2 Right TAL-PBx) [% GFP+]
B1	6.8	5.7	–	–
B2	–	–	8.8	7
